Common to all, as to experiment: SPR, antibody captured, C2 as analyte;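 further: biacore SPR at 37 °C, anti-C2 mAbs captured via goat anti-human IgG on CM5 chips, double-referenced sensorgrams fit to a 1:1 kinetic or steady-state model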
(In general: Surface plasmon resonance follows binding to a sensor surface in real time, without labels.)

The target in one assay is T1, human C2 V455A (human, UniProt P06681 21-752).
T1 sequence: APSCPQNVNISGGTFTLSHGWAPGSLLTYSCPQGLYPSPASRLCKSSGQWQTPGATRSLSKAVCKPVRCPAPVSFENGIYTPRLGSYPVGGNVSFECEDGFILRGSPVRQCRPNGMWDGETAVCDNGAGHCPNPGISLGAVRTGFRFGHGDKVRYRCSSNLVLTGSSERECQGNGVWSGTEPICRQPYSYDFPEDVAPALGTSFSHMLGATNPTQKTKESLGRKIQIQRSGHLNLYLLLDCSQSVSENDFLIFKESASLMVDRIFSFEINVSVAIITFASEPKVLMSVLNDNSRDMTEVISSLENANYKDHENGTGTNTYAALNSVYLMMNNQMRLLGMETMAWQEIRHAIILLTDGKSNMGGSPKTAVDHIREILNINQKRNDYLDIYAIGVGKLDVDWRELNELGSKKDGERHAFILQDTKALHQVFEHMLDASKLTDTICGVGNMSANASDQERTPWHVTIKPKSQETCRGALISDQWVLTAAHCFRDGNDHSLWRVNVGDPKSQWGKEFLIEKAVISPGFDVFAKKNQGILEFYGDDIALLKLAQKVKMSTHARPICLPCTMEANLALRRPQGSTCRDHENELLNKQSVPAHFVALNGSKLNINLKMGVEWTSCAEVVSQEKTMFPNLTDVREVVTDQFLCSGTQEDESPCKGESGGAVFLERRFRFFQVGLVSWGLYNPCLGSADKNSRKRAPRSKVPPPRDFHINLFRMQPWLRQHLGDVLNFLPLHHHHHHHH

The target in a further assay is T2, human C2 H331A (human, UniProt P06681 21-752).
T2 sequence: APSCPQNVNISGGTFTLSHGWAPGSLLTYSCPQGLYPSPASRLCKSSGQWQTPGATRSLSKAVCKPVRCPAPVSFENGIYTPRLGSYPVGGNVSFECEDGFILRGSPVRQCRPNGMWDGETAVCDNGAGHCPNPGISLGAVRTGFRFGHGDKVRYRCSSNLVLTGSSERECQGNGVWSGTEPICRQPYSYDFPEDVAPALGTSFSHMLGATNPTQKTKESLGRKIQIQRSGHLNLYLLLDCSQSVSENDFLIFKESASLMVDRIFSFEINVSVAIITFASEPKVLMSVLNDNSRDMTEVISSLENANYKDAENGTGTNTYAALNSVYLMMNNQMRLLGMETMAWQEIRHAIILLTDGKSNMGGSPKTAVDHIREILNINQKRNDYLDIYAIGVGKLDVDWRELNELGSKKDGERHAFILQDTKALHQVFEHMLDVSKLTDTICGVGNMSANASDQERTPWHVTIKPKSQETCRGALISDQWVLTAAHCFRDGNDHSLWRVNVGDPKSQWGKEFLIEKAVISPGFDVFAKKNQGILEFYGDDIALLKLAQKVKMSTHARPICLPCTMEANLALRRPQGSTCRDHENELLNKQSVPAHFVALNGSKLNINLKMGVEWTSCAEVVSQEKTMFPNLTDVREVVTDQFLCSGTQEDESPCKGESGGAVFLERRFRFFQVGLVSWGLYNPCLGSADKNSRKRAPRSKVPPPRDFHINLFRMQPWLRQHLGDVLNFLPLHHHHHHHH

The target in another assay is T3, human C2 D431A (human, UniProt P06681 21-752).
T3 sequence: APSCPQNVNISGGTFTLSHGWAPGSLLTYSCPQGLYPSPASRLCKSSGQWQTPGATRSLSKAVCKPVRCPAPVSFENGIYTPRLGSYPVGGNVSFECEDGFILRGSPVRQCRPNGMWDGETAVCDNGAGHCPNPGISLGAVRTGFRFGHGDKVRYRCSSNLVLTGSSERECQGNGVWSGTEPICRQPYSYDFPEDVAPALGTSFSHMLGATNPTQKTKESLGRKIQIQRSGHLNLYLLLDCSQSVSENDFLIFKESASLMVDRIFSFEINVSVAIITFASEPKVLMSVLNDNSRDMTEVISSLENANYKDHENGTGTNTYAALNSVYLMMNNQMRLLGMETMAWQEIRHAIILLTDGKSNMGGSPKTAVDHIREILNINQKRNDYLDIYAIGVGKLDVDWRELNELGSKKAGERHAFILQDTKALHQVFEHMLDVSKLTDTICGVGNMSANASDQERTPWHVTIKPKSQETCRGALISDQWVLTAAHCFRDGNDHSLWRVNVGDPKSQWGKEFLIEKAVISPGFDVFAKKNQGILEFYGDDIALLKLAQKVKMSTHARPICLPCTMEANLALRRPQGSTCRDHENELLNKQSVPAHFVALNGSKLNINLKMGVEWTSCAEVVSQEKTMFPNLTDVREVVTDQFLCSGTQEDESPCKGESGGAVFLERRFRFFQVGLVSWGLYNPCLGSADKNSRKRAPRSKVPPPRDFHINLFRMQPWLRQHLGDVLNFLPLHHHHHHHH

The next assay concerns the target T4, human C2 P486A (human, UniProt P06681 21-752).
T4 sequence: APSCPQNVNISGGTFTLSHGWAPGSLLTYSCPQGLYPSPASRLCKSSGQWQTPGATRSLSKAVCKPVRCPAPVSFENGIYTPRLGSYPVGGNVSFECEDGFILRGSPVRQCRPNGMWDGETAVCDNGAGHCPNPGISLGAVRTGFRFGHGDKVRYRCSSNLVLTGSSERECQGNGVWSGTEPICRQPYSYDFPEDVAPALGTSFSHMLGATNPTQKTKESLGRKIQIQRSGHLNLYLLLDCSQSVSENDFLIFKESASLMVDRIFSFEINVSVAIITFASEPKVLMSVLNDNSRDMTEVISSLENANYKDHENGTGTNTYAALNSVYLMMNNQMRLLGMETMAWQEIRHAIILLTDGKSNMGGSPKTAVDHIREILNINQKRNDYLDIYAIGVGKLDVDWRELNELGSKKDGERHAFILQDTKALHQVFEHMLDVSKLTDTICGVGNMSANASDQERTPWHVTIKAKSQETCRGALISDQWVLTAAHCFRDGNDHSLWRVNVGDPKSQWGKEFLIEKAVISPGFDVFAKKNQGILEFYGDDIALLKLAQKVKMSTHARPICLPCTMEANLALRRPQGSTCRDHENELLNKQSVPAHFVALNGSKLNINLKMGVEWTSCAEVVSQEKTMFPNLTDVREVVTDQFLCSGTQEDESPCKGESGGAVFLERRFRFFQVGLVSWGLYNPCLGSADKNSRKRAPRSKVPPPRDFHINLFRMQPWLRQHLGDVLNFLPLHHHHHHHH

B1: RF16-226 (antibody, human IgG4 S228P, lambda)
heavy: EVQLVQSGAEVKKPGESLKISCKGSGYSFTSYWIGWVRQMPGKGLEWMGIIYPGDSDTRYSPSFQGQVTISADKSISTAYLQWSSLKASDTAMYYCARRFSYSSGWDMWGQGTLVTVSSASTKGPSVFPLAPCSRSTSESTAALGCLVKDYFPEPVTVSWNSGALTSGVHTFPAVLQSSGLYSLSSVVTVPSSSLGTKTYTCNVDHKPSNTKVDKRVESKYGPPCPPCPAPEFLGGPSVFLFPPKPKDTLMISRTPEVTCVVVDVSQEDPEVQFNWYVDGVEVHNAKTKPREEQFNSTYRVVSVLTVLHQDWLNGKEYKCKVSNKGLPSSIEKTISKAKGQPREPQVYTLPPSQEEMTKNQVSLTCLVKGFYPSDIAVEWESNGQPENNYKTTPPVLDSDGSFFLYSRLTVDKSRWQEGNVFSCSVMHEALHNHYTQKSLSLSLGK
light: SYELTQPPSVSVSPGQTARITCSGDALTSKYVAWYQQKSGLAPLLVIYEDTRRPSGIPAKFSGSSSGSVATLTISGAHGDDEADYYCYSTDASGHQRVFGGGTKLTVLSQPKAAPSVTLFPPSSEELQANKATLVCLISDFYPGAVTVAWKADGSPVKAGVETTKPSKQSNNKYAASSYLSLTPEQWKSHRSYSCQVTHEGSTVEKTVAPTECS
notes: pH-dependent anti-C2 antibody from a phage display library; also called WT
By Kd is commonly meant the concentration at which binding is half-saturated. Take B1: the Kd worked out at 9 nM in the assay with human C2 V455A, 43.4 nM with human C2 D431A and 11.1 nM with human C2 P486A. Moreover, the binding result with human C2 H331A is given as “no binding”.

The record behind these values is patent US20220332804A1 (CSL INNOVATION, published 2022).
